{"source": "patent US20240174767A1", "target": "β2AR wild type (wt) receptor (human) (UniProt P07550)", "test": "cell-based or functional assay"}
{"substance": "MbNb80^cHopQ (designed binder)", "values": [{"measurement": "apparent potency shift: IC50 of epinephrine for β2AR-wt alone divided by the IC50^high of epinephrine for β2AR-wt in the presence of MbNb80^cHopQ ([3H]-DHA competition)", "value": 2000, "unit": "fold"}, {"measurement": "apparent potency shift: IC50 of isoprotenerol for β2AR-wt divided by the IC50^high of isoprotenerol for β2AR-wt in the presence of MbNb80^cHopQ ([3H]-DHA competition)", "value": 2000, "unit": "fold"}]}
